These results are taken from patent US20210388087A1 (Chugai, published 2021).

B1: CE115HA000 A102P one-arm antibody (antibody, human IgG1, kappa, L234A L235A, N297A, name in Kabat numbering)
heavy: QVQLVESGGGVVQPGRSLRLSCAASGFTFSNAWMHWVRQAPGKGLEWVAQIKAKSNNYATYYAESVKGRFTISRDDSKNSLYLQMNSLKTEDTAVYYCRYVHYGAYYGVDPWGQGTTVTVSSASTKGPSVFPLAPSSKSTSGGTAALGCLVKDYFPEPVTVSWNSGALTSGVHTFPAVLQSSGLYSLSSVVTVPSSSLGTQTYICNVNHKPSNTKVDKKVEPKSCDKTHTCPPCPAPEAAGGPSVFLFPPKPKDTLMISRTPEVTCVVVDVSHEDPEVKFNWYVDGVEVHNAKTKPREEQYASTYRVVSVLTVLHQDWLNGKEYKCKVSNKALPAPIEKTISKAKGQPREPQVYTLPPSRCELTKNQVSLSCAVKGFYPSDIAVEWESNGQPENNYKTTPPVLDSDGSFFLVSKLTVDKSRWQQGNVFSCSVMHEALHNHYTQKSLSLSPDYKDDDDK
chain: EPKSSDKTHTCPPCPAPELLGGPSVFLFPPKPKDTLMISRTPEVTCVVVDVSHEDPEVKFNWYVDGVEVHNAKTKPREEQYNSTYRVVSVLTVLHQDWLNGKEYKCKVSNKALPAPIEKTISKAKGQPREPQVCTLPPSRDELTKNQVSLWCLVKGFYPSDIAVEWESNGQPENNYKTTPPVLDSDGSFFLYSKLTVDKSRWQQGNVFSCSVMHEALHNRYTQKSLSLSP
light: DIVMTQSPLSLPVTPGEPASISCRSSQSLVHSNRNTYLHWYQQKPGQAPRLLIYKVSNRFSGVPDRFSGSGSGTDFTLKISRVEAEDVGVYYCGQGTQVPYTFGQGTKLEIKRTVAAPSVFIFPPSDEQLKSGTASVVCLLNNFYPREAKVQWKVDNALQSGNSQESVTEQDSKDSTYSLSSTLTLSKADYEKHKVYACEVTHQGLSSPVTKSFNRGEC
B2: CE115HA000 D72V one-arm antibody (antibody, human IgG1, kappa, L234A L235A, N297A, name in Kabat numbering)
heavy: QVQLVESGGGVVQPGRSLRLSCAASGFTFSNAWMHWVRQAPGKGLEWVAQIKAKSNNYATYYAESVKGRFTISRVDSKNSLYLQMNSLKTEDTAVYYCRYVHYGAYYGVDAWGQGTTVTVSSASTKGPSVFPLAPSSKSTSGGTAALGCLVKDYFPEPVTVSWNSGALTSGVHTFPAVLQSSGLYSLSSVVTVPSSSLGTQTYICNVNHKPSNTKVDKKVEPKSCDKTHTCPPCPAPEAAGGPSVFLFPPKPKDTLMISRTPEVTCVVVDVSHEDPEVKFNWYVDGVEVHNAKTKPREEQYASTYRVVSVLTVLHQDWLNGKEYKCKVSNKALPAPIEKTISKAKGQPREPQVYTLPPSRCELTKNQVSLSCAVKGFYPSDIAVEWESNGQPENNYKTTPPVLDSDGSFFLVSKLTVDKSRWQQGNVFSCSVMHEALHNHYTQKSLSLSPDYKDDDDK
chain: EPKSSDKTHTCPPCPAPELLGGPSVFLFPPKPKDTLMISRTPEVTCVVVDVSHEDPEVKFNWYVDGVEVHNAKTKPREEQYNSTYRVVSVLTVLHQDWLNGKEYKCKVSNKALPAPIEKTISKAKGQPREPQVCTLPPSRDELTKNQVSLWCLVKGFYPSDIAVEWESNGQPENNYKTTPPVLDSDGSFFLYSKLTVDKSRWQQGNVFSCSVMHEALHNRYTQKSLSLSP
light: DIVMTQSPLSLPVTPGEPASISCRSSQSLVHSNRNTYLHWYQQKPGQAPRLLIYKVSNRFSGVPDRFSGSGSGTDFTLKISRVEAEDVGVYYCGQGTQVPYTFGQGTKLEIKRTVAAPSVFIFPPSDEQLKSGTASVVCLLNNFYPREAKVQWKVDNALQSGNSQESVTEQDSKDSTYSLSSTLTLSKADYEKHKVYACEVTHQGLSSPVTKSFNRGEC
B3: CE115HA000 D72A one-arm antibody (antibody, human IgG1, kappa, L234A L235A, N297A, name in Kabat numbering)
heavy: QVQLVESGGGVVQPGRSLRLSCAASGFTFSNAWMHWVRQAPGKGLEWVAQIKAKSNNYATYYAESVKGRFTISRADSKNSLYLQMNSLKTEDTAVYYCRYVHYGAYYGVDAWGQGTTVTVSSASTKGPSVFPLAPSSKSTSGGTAALGCLVKDYFPEPVTVSWNSGALTSGVHTFPAVLQSSGLYSLSSVVTVPSSSLGTQTYICNVNHKPSNTKVDKKVEPKSCDKTHTCPPCPAPEAAGGPSVFLFPPKPKDTLMISRTPEVTCVVVDVSHEDPEVKFNWYVDGVEVHNAKTKPREEQYASTYRVVSVLTVLHQDWLNGKEYKCKVSNKALPAPIEKTISKAKGQPREPQVYTLPPSRCELTKNQVSLSCAVKGFYPSDIAVEWESNGQPENNYKTTPPVLDSDGSFFLVSKLTVDKSRWQQGNVFSCSVMHEALHNHYTQKSLSLSPDYKDDDDK
chain: EPKSSDKTHTCPPCPAPELLGGPSVFLFPPKPKDTLMISRTPEVTCVVVDVSHEDPEVKFNWYVDGVEVHNAKTKPREEQYNSTYRVVSVLTVLHQDWLNGKEYKCKVSNKALPAPIEKTISKAKGQPREPQVCTLPPSRDELTKNQVSLWCLVKGFYPSDIAVEWESNGQPENNYKTTPPVLDSDGSFFLYSKLTVDKSRWQQGNVFSCSVMHEALHNRYTQKSLSLSP
light: DIVMTQSPLSLPVTPGEPASISCRSSQSLVHSNRNTYLHWYQQKPGQAPRLLIYKVSNRFSGVPDRFSGSGSGTDFTLKISRVEAEDVGVYYCGQGTQVPYTFGQGTKLEIKRTVAAPSVFIFPPSDEQLKSGTASVVCLLNNFYPREAKVQWKVDNALQSGNSQESVTEQDSKDSTYSLSSTLTLSKADYEKHKVYACEVTHQGLSSPVTKSFNRGEC
B4: CE115HA000 A102V one-arm antibody (antibody, human IgG1, kappa, L234A L235A, N297A, name in Kabat numbering)
heavy: QVQLVESGGGVVQPGRSLRLSCAASGFTFSNAWMHWVRQAPGKGLEWVAQIKAKSNNYATYYAESVKGRFTISRDDSKNSLYLQMNSLKTEDTAVYYCRYVHYGAYYGVDVWGQGTTVTVSSASTKGPSVFPLAPSSKSTSGGTAALGCLVKDYFPEPVTVSWNSGALTSGVHTFPAVLQSSGLYSLSSVVTVPSSSLGTQTYICNVNHKPSNTKVDKKVEPKSCDKTHTCPPCPAPEAAGGPSVFLFPPKPKDTLMISRTPEVTCVVVDVSHEDPEVKFNWYVDGVEVHNAKTKPREEQYASTYRVVSVLTVLHQDWLNGKEYKCKVSNKALPAPIEKTISKAKGQPREPQVYTLPPSRCELTKNQVSLSCAVKGFYPSDIAVEWESNGQPENNYKTTPPVLDSDGSFFLVSKLTVDKSRWQQGNVFSCSVMHEALHNHYTQKSLSLSPDYKDDDDK
chain: EPKSSDKTHTCPPCPAPELLGGPSVFLFPPKPKDTLMISRTPEVTCVVVDVSHEDPEVKFNWYVDGVEVHNAKTKPREEQYNSTYRVVSVLTVLHQDWLNGKEYKCKVSNKALPAPIEKTISKAKGQPREPQVCTLPPSRDELTKNQVSLWCLVKGFYPSDIAVEWESNGQPENNYKTTPPVLDSDGSFFLYSKLTVDKSRWQQGNVFSCSVMHEALHNRYTQKSLSLSP
light: DIVMTQSPLSLPVTPGEPASISCRSSQSLVHSNRNTYLHWYQQKPGQAPRLLIYKVSNRFSGVPDRFSGSGSGTDFTLKISRVEAEDVGVYYCGQGTQVPYTFGQGTKLEIKRTVAAPSVFIFPPSDEQLKSGTASVVCLLNNFYPREAKVQWKVDNALQSGNSQESVTEQDSKDSTYSLSSTLTLSKADYEKHKVYACEVTHQGLSSPVTKSFNRGEC
B5: CE115HA000 A102Y one-arm antibody (antibody, human IgG1, kappa, L234A L235A, N297A, name in Kabat numbering)
heavy: QVQLVESGGGVVQPGRSLRLSCAASGFTFSNAWMHWVRQAPGKGLEWVAQIKAKSNNYATYYAESVKGRFTISRDDSKNSLYLQMNSLKTEDTAVYYCRYVHYGAYYGVDYWGQGTTVTVSSASTKGPSVFPLAPSSKSTSGGTAALGCLVKDYFPEPVTVSWNSGALTSGVHTFPAVLQSSGLYSLSSVVTVPSSSLGTQTYICNVNHKPSNTKVDKKVEPKSCDKTHTCPPCPAPEAAGGPSVFLFPPKPKDTLMISRTPEVTCVVVDVSHEDPEVKFNWYVDGVEVHNAKTKPREEQYASTYRVVSVLTVLHQDWLNGKEYKCKVSNKALPAPIEKTISKAKGQPREPQVYTLPPSRCELTKNQVSLSCAVKGFYPSDIAVEWESNGQPENNYKTTPPVLDSDGSFFLVSKLTVDKSRWQQGNVFSCSVMHEALHNHYTQKSLSLSPDYKDDDDK
chain: EPKSSDKTHTCPPCPAPELLGGPSVFLFPPKPKDTLMISRTPEVTCVVVDVSHEDPEVKFNWYVDGVEVHNAKTKPREEQYNSTYRVVSVLTVLHQDWLNGKEYKCKVSNKALPAPIEKTISKAKGQPREPQVCTLPPSRDELTKNQVSLWCLVKGFYPSDIAVEWESNGQPENNYKTTPPVLDSDGSFFLYSKLTVDKSRWQQGNVFSCSVMHEALHNRYTQKSLSLSP
light: DIVMTQSPLSLPVTPGEPASISCRSSQSLVHSNRNTYLHWYQQKPGQAPRLLIYKVSNRFSGVPDRFSGSGSGTDFTLKISRVEAEDVGVYYCGQGTQVPYTFGQGTKLEIKRTVAAPSVFIFPPSDEQLKSGTASVVCLLNNFYPREAKVQWKVDNALQSGNSQESVTEQDSKDSTYSLSSTLTLSKADYEKHKVYACEVTHQGLSSPVTKSFNRGEC
B6: CE115HA000 D72E one-arm antibody (antibody, human IgG1, kappa, L234A L235A, N297A, name in Kabat numbering)
heavy: QVQLVESGGGVVQPGRSLRLSCAASGFTFSNAWMHWVRQAPGKGLEWVAQIKAKSNNYATYYAESVKGRFTISREDSKNSLYLQMNSLKTEDTAVYYCRYVHYGAYYGVDAWGQGTTVTVSSASTKGPSVFPLAPSSKSTSGGTAALGCLVKDYFPEPVTVSWNSGALTSGVHTFPAVLQSSGLYSLSSVVTVPSSSLGTQTYICNVNHKPSNTKVDKKVEPKSCDKTHTCPPCPAPEAAGGPSVFLFPPKPKDTLMISRTPEVTCVVVDVSHEDPEVKFNWYVDGVEVHNAKTKPREEQYASTYRVVSVLTVLHQDWLNGKEYKCKVSNKALPAPIEKTISKAKGQPREPQVYTLPPSRCELTKNQVSLSCAVKGFYPSDIAVEWESNGQPENNYKTTPPVLDSDGSFFLVSKLTVDKSRWQQGNVFSCSVMHEALHNHYTQKSLSLSPDYKDDDDK
chain: EPKSSDKTHTCPPCPAPELLGGPSVFLFPPKPKDTLMISRTPEVTCVVVDVSHEDPEVKFNWYVDGVEVHNAKTKPREEQYNSTYRVVSVLTVLHQDWLNGKEYKCKVSNKALPAPIEKTISKAKGQPREPQVCTLPPSRDELTKNQVSLWCLVKGFYPSDIAVEWESNGQPENNYKTTPPVLDSDGSFFLYSKLTVDKSRWQQGNVFSCSVMHEALHNRYTQKSLSLSP
light: DIVMTQSPLSLPVTPGEPASISCRSSQSLVHSNRNTYLHWYQQKPGQAPRLLIYKVSNRFSGVPDRFSGSGSGTDFTLKISRVEAEDVGVYYCGQGTQVPYTFGQGTKLEIKRTVAAPSVFIFPPSDEQLKSGTASVVCLLNNFYPREAKVQWKVDNALQSGNSQESVTEQDSKDSTYSLSSTLTLSKADYEKHKVYACEVTHQGLSSPVTKSFNRGEC
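Note: homodimer attached to the sensor surface via amine coupling, HBS-EP+ used as running buffer during binding runs.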

T1 sequence (P07766 23-126): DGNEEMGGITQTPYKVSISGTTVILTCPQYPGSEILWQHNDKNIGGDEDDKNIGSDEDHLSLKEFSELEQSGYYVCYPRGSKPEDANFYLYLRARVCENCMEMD

This assay has as its target T1, CD3 epsilon homodimer protein (UniProt P07766 23-126).
T1 construct: immobilized on Sensor chip CM4 by amine coupling; also called CD3 (CD3 epsilon)
The assay can be described thus: SPR (Biacore T200), CD3 epsilon homodimer on CM4 chip, one-arm antibody as analyte, 25 C. (In SPR one partner is held on a chip, and binding of the other changes the refractive index at the surface.)
Description: An appropriate amount of CD3 epsilon homodimer protein was immobilized onto Sensor chip CM4 (GE Healthcare Japan Corp.) by the amine coupling method. Then, the antibody having an appropriate concentration was injected thereto as an analyte and allowed to interact with the CD3 epsilon homodimer protein on the sensor chip. Then, the sensor chip was regenerated by the injection of 10 mmol/L glycine-HCl (pH 1.5). The assay was conducted at 25 degrees C., and HBS-EP+(GE Healthcare Japan Corp.) was used as a running buffer. […] Each parameter was calculated using Biacore T200 Evaluation Software (GE Healthcare Japan Corp.).
For B1, the “ratio of amounts bound (altered form / CE115HA000)” value came to 0.14.
Then B2, with 1.43.
With B3, the “ratio of amounts bound (altered form / CE115HA000)” value came to 1.41.
For B4, the “ratio of amounts bound (altered form / CE115HA000)” value amounted to 1.43.
As for B5, the figure is 0.91; as for B6, 1.05.
